Substrate in the data set: CC(=O)Oc1cccc2ccccc12
The data set can be described thus: purified protein. The data set is classed as biochemical, Helicoverpa armigera. To be noted: 0.1 M sodium phosphate pH 7.0, 30 °C.

Data on three proteins can be found in article PMC4848949, “Bacterial Expression and Kinetic Analysis of Carboxylesterase 001D from Helicoverpa armigera” (International Journal of Molecular Sciences, 2016).

B1: Trx/6×His/S-tag/001D (pET32a-001D) (Helicoverpa armigera) (protein)
chain: DDEWREVRTAQGPVRGRKHPTADMYAFYNIPYATAPTGEDKFKAPLPGPVWLEPFDAVDERVVCPQAKLPMDIMKNVVEKENCLIANVFVPNTEEKNLSVVVYVHGGAFIIGSGNMIQATHLMKTNDFIMVSFNYRLGIHGFLCLGTEDAPGNAGMKDQVALLRWVQKNIASFGGNPDDVTIVGSSAGSASVDLLMLSKSAEGLFHRVIPESGGNLAAFTVQRDPVEIAKTHAKKLNFNNVDDIYALEEFYKTVPMELLTSDHFFDRTDATFVFGPCVERDTGDGAFLTESPLSILKSGNYRKLPLLYGFAEMEGLMRINVFELWKHKMNEKFSDFLPADLKFDSEEEREEVANKIKRFYFGDKPVGDENVLKYVDYFSDVYFAYSMLWAVKLHAEAGNNQVYLYEYSFVDEDTPLVPHTNVRGADHCTQTMAVYDMKNITHEDESLATPELQKMKKVVREIWHNFIKTGVPVPEGSWLPAWPAAGADRAPHMSLGERLELRGALLPERTRFWDDIYQRYYRDAVPPPTPPPRPRSEL
notes: mature enzyme, signal peptide (residues 1-16) removed; N-terminal Trx/6×His/S-tag kept; E. coli BL21(DE3), Ni-NTA; about 79 kDa; full precursor 554 residues
On to B1, for which the Km is on record as 7.61(0.63) µM and the kcat is 2.29(0.08) s^-1.

B2: 6×His/001D (pE1-001D) (Helicoverpa armigera) (protein)
chain: B1 chain
notes: mature enzyme, signal peptide (residues 1-16) removed; N-terminal 6×His tag kept; E. coli BL21(DE3), Ni-NTA; about 63 kDa
B2: the Km is given as 19.72(6.69) µM and the kcat is 0.35(0.05) s^-1.

B3: 6×His/S-tag/001D (pET30a-001D) (Helicoverpa armigera) (protein)
chain: B1 chain
notes: mature enzyme, signal peptide (residues 1-16) removed; N-terminal 6×His/S-tag kept; E. coli BL21(DE3), Ni-NTA; about 67 kDa
For B3, the Km is listed as 12.51(2.14) µM and the kcat is listed as 0.60(0.06) s^-1.
